Source: patent US20170320960A1 (AbbVie / Abbott, published 2017)

T1: hMFI2 Tf-like Domain 1 (TLD1), amino acids 20-357, displayed on yeast (human, UniProt P08582 20-357)
T1 construct: also called TFLD1
T1 sequence: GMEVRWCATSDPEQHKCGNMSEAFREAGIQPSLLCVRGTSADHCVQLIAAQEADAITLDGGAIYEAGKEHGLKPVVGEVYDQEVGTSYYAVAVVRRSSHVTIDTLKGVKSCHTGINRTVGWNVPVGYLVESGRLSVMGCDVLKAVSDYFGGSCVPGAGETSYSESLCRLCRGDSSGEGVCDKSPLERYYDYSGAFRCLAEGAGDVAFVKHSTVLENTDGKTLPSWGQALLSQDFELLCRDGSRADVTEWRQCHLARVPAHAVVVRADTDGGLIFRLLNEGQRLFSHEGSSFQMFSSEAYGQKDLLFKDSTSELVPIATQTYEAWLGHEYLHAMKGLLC

T2: hMFI2 Tf-like Domain 2 (TLD2), amino acids 366-709, displayed on yeast (human, UniProt P08582 366-709)
T2 construct: also called TFLD2; transferrin-like domain 2
T2 sequence: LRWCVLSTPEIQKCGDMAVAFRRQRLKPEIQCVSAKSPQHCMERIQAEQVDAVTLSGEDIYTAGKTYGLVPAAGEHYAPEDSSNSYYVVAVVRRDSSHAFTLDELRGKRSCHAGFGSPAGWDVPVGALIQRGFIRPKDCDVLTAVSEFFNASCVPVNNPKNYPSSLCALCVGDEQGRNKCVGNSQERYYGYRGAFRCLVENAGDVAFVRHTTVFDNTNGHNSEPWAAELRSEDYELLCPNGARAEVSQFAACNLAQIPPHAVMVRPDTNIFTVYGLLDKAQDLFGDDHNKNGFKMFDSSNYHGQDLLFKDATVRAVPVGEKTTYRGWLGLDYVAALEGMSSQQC

B1: SC57.1 (antibody, V domains shown)
VH: QVQLKQSGPGLVQPSQSLSITCTVSGFSLTDYGVHWVRQSPGKGLDWLGVIWSGGNTDYNAAFISRLSISKDNSKSQIFFEMNSLQDTDTAIYYCARQLHYYGPFAYWGQGTLVTVSA
VL: QIVLTQSPAIMSASPGEKVTMTCSASSSVSYMHWYQQKSGTSPKRWIYDTSKLASGVPVRFSGSGSGTSYSLTISSIEADDAATYYCQQWSRTPPTFGGGTKLEIK
B2: SC57.10 (antibody, V domains shown)
VH: QVQLQQSGAELMKPGASVKISCKATGYTFSNYRIEWIKQRPGHGLEWIGEILPRGGNTNYNEKFKGKATFTADTSSNTAYMQLTSLTSEDSAVYYCARDDGYYGRFAYWGQGTLVTVSA
VL: DIQMTQTTSSLSASLGDRVTISCRASQDISNYLNWYQQKPDGTVKLLIFYTSRLHSGVPSRFSGSGSGTDYSLTISNLEQEDFATYFCQQGNTLPPTFGGGTKLEIK
B3: SC57.11 (antibody, V domains shown)
VH: QVQLQQSGAELMKPGASVKISCKATGYTFSNYRIEWMKQRPGHGLEWIGEILPRTGNTNYNENFKGKATFTADTSSNTAYIQLSSLTSEDSAVYYCARDDGYYGRFAYWGQGTLVTVSA
VL: DIQMTQTTSSLSASLGDRVTISCRASQDISSYLNWYQQKPDGTVKLLIYYTSRLHSGVPSRFSGSGSGTDYSLTINNLEQEDIATYFCQQGNTLPPTFGGGTKLEIK
B4: SC57.5 (antibody, V domains shown)
VH: EVQLQQSGPELVKPGASVKISCKASGYSFTDYYLHWVKQSHVKSLEWIGRINPYNGATSYNQIFKDKASLTVDKSSSTAYMDLHSLTSEDSAVYYCARGGDYDFPWYWGQGTTLTVSP
VL: DIVMTQSHKFMSTSVGDRVSITCKASQDVYAAVAWYHQKPGQSPKLLIYWASTRHAGVPDRFTGSGSGTDYTLTISSVQAEDLALYYCQQHYRTPWTFGGGTKLEIK
B5: SC57.17 (antibody, V domains shown)
VH: EVQLQQSGAELVKPGASVKLSCTASGFNIKDTYMHWVKQRPEQGLEWIGRIDPANVNTSDDPKFQGKATIAADTSSNTVYLQLSSLTSEDTAVYYCARDYRYDGYYYAMDYWGQGTSVTVSS
VL: DIQMTQTTSSLSASLGDRVTISCSASQDINNYLNWYQQKPDGTVKLLIHYTSSLHSGVPSRFSGSGSGTDYSLTISNLEPEDIATYYCQQYSKVPWTFGGGTKLEIK
B6: SC57.9 (antibody, V domains shown)
VH: QVQLQQSGPELMKPGASVKISCKATGYTFSSYWIEWVKQRPGHGLEWIGEILPGSGSTEYNEKFKGKATFTADTSSNTAYMQLSSLTSEDSDVYYCARKRYGTMDYWGQGTSVTVSS
VL: QIVLTQSPAIMSASPGEKVTITCSASSSVSYMHWFQQKPGTSPKLWIYTTSNLASGVPARFSGSGSGTSYSLTISRMEAEDAATYYCQQRSSFPPTFGSGTKLEIK
B7: SC57.4 (antibody, V domains shown)
VH: EIQLQQSGPEMVKPGASVKVTCKASGYSFTDFNMHWMKQSHGKSLEWIGYIDPYKGGISYNQKFKGRATLTVDKSSSTAFMHLNSLTSDDSAVYYCARDYYGSRFPYYFDYWGQGTTLTVSS
VL: DVVMTQTPLSLPVSLGDQASISCRSSQSLVHSNGNTYLHWYLQKPGQSPKLLIYRVSNRFSGVPDRFSGSGSGTDFTLKISRVEAEDLGVYLCSQSTHVPLTFGAGTKLELK
B8: SC57.25 (antibody, V domains shown)
VH: EIQLQQSGPEMVKPGASVKVTCKASGYSFTDFNMHWMKQSHGKSLEWIGYIDPYKGGISYNQKFKGRATLTVDKSSSTAFMHLNSLTSDDSAVYYCARDYYGSRFPYYFDYWGQGTTLTVSS
VL: DVVMTQTPLSLPVSLGDQASISCRSSQSLVHSNGNTYLHWYLQKPGQSPKLLIYRVSNRFSGVPDRFSGSGSGTDFTLKISRVEAEDLGVYLCSQSTHVPLTFGAGTKLELK
B9: SC57.28 (antibody, V domains shown)
VH: EIQLQQSGPEMVKPGASVKVTCKASGYSFTDFNMHWMKQSHGKSLEWIGYIDPYKGGISYNQKFKGRATLTVDKSSSTAFMHLNSLTSDDSAVYYCARDYYGSRFPYYFDYWGQGTTLTVSS
VL: DVVMTQTPLSLPVSLGDQASISCRSSQSLVHSNGNTYLHWYLQKPGQSPKLLIYRVSNRFSGVPDRFSGSGSGTDFTLKISRVEAEDLGVYLCSQSTHVPLTFGAGTKLELK
B10: SC57.18 (antibody, V domains shown)
VH: EIQLQQSGPEMVKPGASVKVTCKASGYSFTDFNMHWMKQSHGKSLEWIGYIDPYKGGISYNQKFKGRATLTVDKSSSTAFMHLNSLTSDDSAVYYCARDYYGSRFPYYFDYWGQGTTLTVSS
VL: DVVMTQTPLSLPVSLGDQASISCRSSQSLVHSNGNTYLHWYLQKPGQSPKLLIYRVSNRFSGVPDRFSGSGSGTDFTLKISRVEAEDLGVYLCSQSTHVPLTFGAGTKLELK
B11: hSC57.32 (antibody, human IgG1, kappa, V domains shown)
VH: QVQLVQSGAEVKKPGASVKVSCKASGYTFTNYRIEWVRQAPGQGLEWMGEILPRGGNTNYNEKFKGRVTFTADTSTSTAYMELRSLRSDDTAVYYCARDDGYYGRFAYWGQGTLVTVSS
VL: DIQMTQSPSSLSASVGDRVTITCRASQDISNYLNWYQQKPGKAPKLLIYYTSRLHSGVPSRFSGSGSGTDYTLTISSLQPEDFATYYCQQGNTLPPTFGGGTKVEIKR
B12: SC57.32 (antibody, V domains shown)
VH: QVQLQQSGAELMKPGASVKISCKATGYTFSNYRIEWIKQRPGHGLEWIGEILPRGGNTNYNEKFKGKATFTADTSSNTAYMQLTSLTSEDSAVYYCARDDGYYGRFAYWGQGTLVTVSA
VL: DIQMTQTTSSLSASLGDRVTISCRASQDISNYLNWYQQKPDGTVKLLIFYTSRLHSGVPSRFSGSGSGTDYSLTISNLEQEDFATYFCQQGNTLPPTFGGGTKLEIK
B13: hSC57.5 (antibody, human IgG1, kappa, V domains shown)
VH: EVQLVQSGAEVKKPGESLKISCKGSGYSFTDYYLHWVRQMPGKGLEWMGRINPYNGATSYNQIFKDQVTISADKSISTAYLQWSSLKASDTAMYYCARGGDYDFPWYWGQGTTVTVSS
VL: DIQMTQSPSSLSASVGDRVTITCKASQDVYAAVAWYQQKPGKAPKLLIYWASTRHAGVPSRFSGSGSGTDFTLTISSLQPEDFATYYCQQHYRTPWTFGQGTKVEIKR
notes: also called humanized SC57.5
B14: SC57.31 (antibody, V domains shown)
VH: QVHLKESGPGLVAPSQSLSITCTVSGFSLTTYGVHWVRQPPGKGLEWLGVIWAGGSTKYNSAFMSRLSISKDNSKTQVLLKMNSLQTDDTAMYYCARVASHGSSSWFAYWGQGTLVTVSA
VL: DIVLTQSPATLSVTPGDSVSLSCRASQSVGNSLHWYQQKSHESPRLLIKYASQSISGIPSRFSGSGSGTDFTLSINSVETEDFGMYFCQQSDSWPLTFGTGTKLELK
B15: SC57.52 (antibody, V domains shown)
VH: QVQLKQSGPGLVQPSQSLSITCTVSGFSLSSYGVHWVRQSPGKGLEWLGVIWSGGNTDYNAAFISRLSISKDNSKSQVFFKMNSLQADDTAIYYCARRNNSAWFAYWGQGTLVTVSA
VL: DIVLTQSPATLSVTPGDSVSLSCRASQGISNNLHWYQQKSHESPRLLIKYASQSISGIPSRFSGSGSGTDFALSINSVETEDFGMFFCQQSNSWPLTFGAGTKLELK
B16: SC57.55 (antibody, V domains shown)
VH: QVQLKQSGPGLVQPSQSLSITCTVSGFSLSSYGVHWVRQSPGKGLEWLGVIWSGGNTDYNAAFISRLSISKDNSKSQVFFKMNSLQADDTAIYYCARRNNSAWFAYWGQGTLVTVSA
VL: DIVLTQSPATLSVTPGDSVSLSCRASQGISNNLHWYQQKSHESPRLLIKYASQSISGIPSRFSGSGSGTDFALSINSVETEDFGMFFCQQSNSWPLTFGAGTKLELK
B17: hSC57.43 (antibody, human IgG1, kappa, V domains shown)
VH: QVQLVESGGGVVQPGRSLRLSCAASGFTFGSYTMSWVRQAPGKGLEWVAYISNGGYVTYYPDTVKGRFTISRDNSKNTLYLQMNSLRAEDTAVYYCARGYDWYFDVWGQGTTVTVSS
VL: DIVMTQSPDSLAVSLGERATINCRSSQSLVHSNGNTYLHWYQQKPGQPPKLLIYKVSNRFSGVPDRFSGSGSGTDFTLTISSLQAEDVAVYYCSQSTHVPLYTFGGGTKVEIKR
B18: SC57.37 (antibody, V domains shown)
VH: EIQLQQSGPEMVKPGASVKVTCKASGYSFTDFNMHWMKQSHGKSLEWIGYIDPYKGGISYNQKFKGRATLTVDKSSSTAFMHLNSLTSDDSAVYYCARDYYGSRFPYYFDYWGQGTTLTVSS
VL: DVVMTQTPLSLPVSLGDQASISCRSSQSLVHSNGNTYLHWYLQKPGQSPKLLIYRVSNRFSGVPDRFSGSGSGTDFTLKISRVEAEDLGVYLCSQSTHVPLTFGAGTKLELK

The binders below were run against T1, hMFI2 Tf-like Domain 1 (TLD1), amino … (assay: flow cytometry on yeast displaying hMFI2 domains).
B1: binds.

Each binder was assayed against T2, hMFI2 Tf-like Domain 2 (TLD2), amino … (assay: flow cytometry on yeast displaying hMFI2 domains).
B2: binds. B3: binds. B4: binds. B5: binds. B6: binds. B7: binds. B8: binds. B9: binds. B10: binds.

Target: T2, hMFI2 Tf-like Domain 2 (TLD2), amino …
Experiment: flow cytometry on yeast displaying hMFI2 domains
Remark: another data set of the same source
B11: binds. B12: binds. B13: binds. B14: binds. B15: binds. B16: binds. B17: binds. B18: binds.
